Laboratory results taken from patent US20150307863A1.

These substances were tested against type IV collagen (assay: cell-based or functional assay).

Row | median NOD (numbers of disruption), saphenous vein bleeding model in hemophilia B mice 7 days after injection | Substance
1 | 8 disruptions | Factor IX K5A variant (from UniProt P00740 47-461) (enzyme)
2 | 19 disruptions | Factor IX K5R variant (from UniProt P00740 47-461) (enzyme)
3 | 14 disruptions | wild type Factor IX (human FIX) (from UniProt P00740 47-461) (enzyme)
